This assay addresses superfolder GFP with strained-cyclooctyne pyrrolysine at residue 204 (sfGFP^204SCO) (Aequorea victoria) [GFP: P42212]. Nature of the assay: FRET or BRET. Background: In BRET a luciferase serves as donor, and the signal depends on an acceptor being close.

“Venus with p-azido-L-phenylalanine at residue 204 (Venus^204azF) (from UniProt P42212 2-238)” gave an FRET efficiency of 86.8%.
